From US20180148504A1 come the findings set out here.

Assay [1] has as its target recombinant purified FRα (ECL assay calibrator) (human) (UniProt P15328). Nature of the assay: ECL sandwich competition; competitors 9F3 capture / 24F12 detection; FRα standard STD01; MORAb-003 10 µg/mL.
Assay [2] has the same target. Kind of assay: ECL sandwich competition; competitors 9F3 capture / 24F12 detection; FRα standard STD03; MORAb-003 10 µg/mL.
Assay [3] shares this target. Nature of the assay: ECL sandwich competition; competitors 9F3 capture / 24F12 detection; FRα standard STD03; MORAb-003 50 µg/mL.
The target is the same in assay [4]. Kind of assay: ECL sandwich competition; competitors 9F3 capture / 24F12 detection; FRα standard STD06; MORAb-003 50 µg/mL.
Assay [5] has the same target. Nature of the assay: ECL sandwich competition; competitors 9F3 capture / 24F12 detection; FRα standard STD07; MORAb-003 50 µg/mL.
The target of assay [6] is endogenous folate receptor alpha in human serum and plasma samples (human) (UniProt P15328). Kind of assay: ECL sandwich competition; competitors 24H8.D3 capture / 19D4.B7 detection; serum samples; MORAb-003 100 µg/mL.
Assay [7] has the same target. Kind of assay: ECL sandwich competition; competitors 24H8.D3 capture / 19D4.B7 detection; plasma samples; MORAb-003 100 µg/mL.
For assay [8] the target is unchanged. Kind of assay: ECL sandwich capture 19D2.G9 / detection 19D4.B7; serum incubated overnight with 10 µg/mL MORAb-003.
The target is the same in assay [9]. Kind of assay: ECL sandwich capture 28H12.G9 / detection 19D4.B7; serum incubated overnight with 10 µg/mL MORAb-003.
The target of assay [10] is recombinant purified FRα (ECL assay calibrator) (human) (UniProt P15328). Kind of assay: ECL sandwich capture 6A2.G7 / detection 19D2.G9; calibrator incubated overnight with 10 µg/mL MORAb-003.
For assay [11], the target named is endogenous folate receptor alpha in human serum and plasma samples (human) (UniProt P15328). Nature of the assay: ECL sandwich capture 19D4.B7 / detection 1D2.G8.G10; serum incubated overnight with 10 µg/mL MORAb-003.
Assay [12] deals with recombinant purified FRα (ECL assay calibrator) (human) (UniProt P15328). Kind of assay: ECL sandwich capture 6A2.G7 / detection 19D4.B7; calibrator incubated overnight with 10 µg/mL MORAb-003.
For assay [13] the target is unchanged. Kind of assay: ECL sandwich capture 19D2.G9 / detection 19D4.B7; calibrator incubated overnight with 10 µg/mL MORAb-003.
Assay [14] has the same target. Nature of the assay: ECL sandwich capture 19D4.B7 / detection 24H8.D3; calibrator incubated overnight with 10 µg/mL MORAb-003.
The target is the same in assay [15]. Nature of the assay: ECL sandwich capture 19D4.B7 / detection 24H8.F3; calibrator incubated overnight with 10 µg/mL MORAb-003.
For assay [16] the target is unchanged. Kind of assay: ECL sandwich capture 24H8.D3 / detection 19D4.B7; calibrator incubated overnight with 10 µg/mL MORAb-003.
The target is the same in assay [17]. Kind of assay: ECL sandwich capture 19D4.B7 / detection 1C6.E12.G8; calibrator incubated overnight with 10 µg/mL MORAb-003.
For assay [18] the target is unchanged. Nature of the assay: ECL sandwich capture 19D4.B7 / detection 1A8.G11.E7; calibrator incubated overnight with 10 µg/mL MORAb-003.
Assay [19] has the same target. Nature of the assay: ECL sandwich capture 24H8.D3 / detection 30G6.G6.G4.E9; calibrator incubated overnight with 10 µg/mL MORAb-003.
The target is the same in assay [20]. Nature of the assay: ECL sandwich capture 30G6.G6.G4.E9 / detection 2F11.F8; calibrator incubated overnight with 10 µg/mL MORAb-003.
Assay [21] shares this target. Nature of the assay: ECL sandwich capture 1C6.E12.G8 / detection 30G6.G6.G4.E9; calibrator incubated overnight with 10 µg/mL MORAb-003.
Assay [22] shares this target. Nature of the assay: ECL sandwich capture 30G6.G6.G4.E9 / detection 1C6.E12.G8; calibrator incubated overnight with 10 µg/mL MORAb-003.
Assay [23] has the same target. Nature of the assay: ECL sandwich capture 1A8.G11.E7 / detection 30G6.G6.G4.E9; calibrator incubated overnight with 10 µg/mL MORAb-003.
Assay [24] has the same target. Nature of the assay: ECL sandwich, positive control +CONT: capture 26B3.F2 (f1) / detection 19D4.B7; calibrator incubated overnight with 10 µg/mL MORAb-003.

Chain of endogenous folate receptor alpha in human serum and plasma samples (human) (P15328 25-234 limits assumed, form in doubt): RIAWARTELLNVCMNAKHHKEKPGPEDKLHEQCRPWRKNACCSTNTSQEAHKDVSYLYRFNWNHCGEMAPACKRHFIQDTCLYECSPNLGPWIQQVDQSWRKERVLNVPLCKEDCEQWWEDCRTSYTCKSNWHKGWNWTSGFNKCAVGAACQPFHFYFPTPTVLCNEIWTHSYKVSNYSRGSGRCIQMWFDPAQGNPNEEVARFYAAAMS
Chain of recombinant purified FRα (ECL assay calibrator) (human) (P15328 25-234 limits assumed): as the sequence (P15328 25-234 limits assumed, form in doubt) above

B1: farletuzumab (MORAb-003) (antibody, part only; not given: Constant regions, V domains shown, not shown: another chain or arm of the molecule)
VH: EVQLVESGGGVVQPGRSLRLSCSASGFTFSGYGLSWVRQAPGKGLEWVAMISSGGSYTYYADSVKGRFAISRDNAKNTLFLQMDSLRPEDTGVYFCARHGDDPAWFAYWGQGTPVTVSS
VL: DIQLTQSPSSLSASVGDRVTITCSVSSSISSNNLHWYQQKPGKAPKPWIYGTSNLASGVPSRFSGSGSGTDYTFTISSLQPEDIATYYCQQWSSYPYMYTFGQGTKVEIK
Take B1: the % of signal without MORAb-003 (MORAb-003 interference) was found to be 68% in assay [1]; 61% in assay [2]; 58% in [3]; 78% in assay [4]; 88% in assay [5]. This molecule yielded a percent inhibition (median, serum) in [6] of 3%. In addition, the percent inhibition (median, plasma) in assay [7] came out at 4%. Moreover, the Drug suppression of serum in [8] was 4.68%; in assay [9], -73.2%; in assay [11], -2.12%. Also, the Drug Suppression of Cal Signal at 500 pg/mL in assay [10] is -7%; in assay [12] it was -13%; in assay [13] it was 2%; in assay [14], -6%; in [15], -14%; in [16], -3%. Further, the Drug Suppression of Cal Signal at 500 pg/mL is -18% in [17]; -2% in assay [18]; 0% in assay [19]; -1% in [20]; -9% in assay [21]; -7% in [22]. In addition, the Drug Suppression of Cal Signal at 500 pg/mL is -6% in assay [23] and -5% in assay [24].
